Measured values: US20200292537A1 (THEUNITEDSTATES OF AMERICA ASREPRESENTEDBYTHE SECRETARYOF …, published 2020)

T1: recombinant RON (cytoplasmic domain, Millipore) (UniProt Q04912 983-1400, limits assumed)
T1 construct: domain: cytoplasmic domain; also called recombinant cytoplasmic RON; cytoplasmic domain of RON
T1 sequence (looked up): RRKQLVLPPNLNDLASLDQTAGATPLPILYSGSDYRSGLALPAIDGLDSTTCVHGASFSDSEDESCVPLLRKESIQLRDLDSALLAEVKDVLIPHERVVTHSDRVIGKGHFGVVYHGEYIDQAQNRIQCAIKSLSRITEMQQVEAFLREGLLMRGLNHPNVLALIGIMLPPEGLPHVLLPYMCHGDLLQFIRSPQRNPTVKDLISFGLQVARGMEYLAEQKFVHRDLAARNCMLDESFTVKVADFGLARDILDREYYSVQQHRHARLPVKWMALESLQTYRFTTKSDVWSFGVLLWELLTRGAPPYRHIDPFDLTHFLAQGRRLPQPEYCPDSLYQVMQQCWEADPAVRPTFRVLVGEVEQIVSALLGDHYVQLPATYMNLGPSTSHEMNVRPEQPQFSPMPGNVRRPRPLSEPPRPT

B1: rabbit monoclonal anti-pY1235-MET antibody, clone 23111 (antibody, V domains shown)
VH: QSVEESGGRLVTPGTPLTLTCTVSGFSLSNYAMGWFRQAPGKGLEWIGIISRSGALWYANWANGRFTISKTSTTVDLKITSPTPEDTATYFCARTNYYDGYGGVDAVLTRFDFWGQGTLVTVSS
VL: DVVMTQTPSSVEAAVGGTVTIKCQASQSIGGGLSWYQQKAGQPPKLLIYGASTLESGVPSRFKGSGSGTEFTLTISDLECADAATYYCQSNYGSDIRDYGHTFGGGTEVVVKG
notes: Rabbit IgG from a hybridoma (Epitomics), later made as a recombinant protein in HEK293 cells; Biotin-conjugated when used as reporter in the sandwich immunoassay; also called antibody #23111; mAb #23111

Experiments:
[1] = biological target: recombinant RON protein (extracellular domain, R&D Systems) (human) (UniProt Q04912); test: full-length MET sandwich immunoassay; RON extracellular domain at 4 to 400 pM, 10-fold over rMET
[2] = biological target: T1, recombinant RON (cytoplasmic domain, …); test: Western blot of recombinant RON and preincubation of the antibody with RON
[3] = biological target: pY1235-MET (human MET phosphorylated at tyrosine 1235) (human) (UniProt P08581); test: interaction analysis with a BIAlite-Biosensor (Pharmacia), range of protein concentrations
Chain of pY1235-MET (human MET phosphorylated at tyrosine 1235) (human) (P08581 25-1390 limits assumed): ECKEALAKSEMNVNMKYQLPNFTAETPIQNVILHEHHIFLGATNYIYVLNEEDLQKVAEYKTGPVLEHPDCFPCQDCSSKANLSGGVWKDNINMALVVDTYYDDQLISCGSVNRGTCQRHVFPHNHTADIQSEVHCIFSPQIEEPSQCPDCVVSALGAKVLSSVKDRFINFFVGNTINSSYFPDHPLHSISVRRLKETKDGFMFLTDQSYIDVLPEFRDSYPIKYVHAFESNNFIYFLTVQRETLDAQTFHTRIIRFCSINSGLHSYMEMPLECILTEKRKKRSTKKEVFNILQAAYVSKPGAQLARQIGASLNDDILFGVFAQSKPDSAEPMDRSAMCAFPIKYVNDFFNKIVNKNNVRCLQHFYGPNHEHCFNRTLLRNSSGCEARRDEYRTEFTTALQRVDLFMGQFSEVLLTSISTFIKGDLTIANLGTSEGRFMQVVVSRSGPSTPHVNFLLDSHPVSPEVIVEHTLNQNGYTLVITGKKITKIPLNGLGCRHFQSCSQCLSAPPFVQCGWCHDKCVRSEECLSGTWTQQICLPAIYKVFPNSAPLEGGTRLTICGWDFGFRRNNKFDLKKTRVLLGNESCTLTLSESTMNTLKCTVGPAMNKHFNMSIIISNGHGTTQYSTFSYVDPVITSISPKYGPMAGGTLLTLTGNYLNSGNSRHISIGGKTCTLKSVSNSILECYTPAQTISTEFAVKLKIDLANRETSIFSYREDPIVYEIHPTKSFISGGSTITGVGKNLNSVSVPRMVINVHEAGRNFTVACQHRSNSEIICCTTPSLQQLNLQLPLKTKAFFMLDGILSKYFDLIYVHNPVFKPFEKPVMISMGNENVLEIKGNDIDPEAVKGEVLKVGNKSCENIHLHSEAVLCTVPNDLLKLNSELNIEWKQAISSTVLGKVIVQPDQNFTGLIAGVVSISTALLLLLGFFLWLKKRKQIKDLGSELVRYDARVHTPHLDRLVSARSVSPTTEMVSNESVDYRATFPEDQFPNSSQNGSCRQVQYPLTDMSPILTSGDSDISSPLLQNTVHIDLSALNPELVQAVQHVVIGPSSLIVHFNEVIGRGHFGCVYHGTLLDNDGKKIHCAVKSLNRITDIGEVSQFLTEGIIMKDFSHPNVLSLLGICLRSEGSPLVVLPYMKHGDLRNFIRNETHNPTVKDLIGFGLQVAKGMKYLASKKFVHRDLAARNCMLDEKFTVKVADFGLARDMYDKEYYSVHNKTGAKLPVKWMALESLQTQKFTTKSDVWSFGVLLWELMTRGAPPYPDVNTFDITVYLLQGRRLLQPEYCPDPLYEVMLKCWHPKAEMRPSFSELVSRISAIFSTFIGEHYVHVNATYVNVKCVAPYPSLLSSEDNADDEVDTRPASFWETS

Chain of recombinant RON protein (extracellular domain, R&D Systems) (human) (Q04912 25-957): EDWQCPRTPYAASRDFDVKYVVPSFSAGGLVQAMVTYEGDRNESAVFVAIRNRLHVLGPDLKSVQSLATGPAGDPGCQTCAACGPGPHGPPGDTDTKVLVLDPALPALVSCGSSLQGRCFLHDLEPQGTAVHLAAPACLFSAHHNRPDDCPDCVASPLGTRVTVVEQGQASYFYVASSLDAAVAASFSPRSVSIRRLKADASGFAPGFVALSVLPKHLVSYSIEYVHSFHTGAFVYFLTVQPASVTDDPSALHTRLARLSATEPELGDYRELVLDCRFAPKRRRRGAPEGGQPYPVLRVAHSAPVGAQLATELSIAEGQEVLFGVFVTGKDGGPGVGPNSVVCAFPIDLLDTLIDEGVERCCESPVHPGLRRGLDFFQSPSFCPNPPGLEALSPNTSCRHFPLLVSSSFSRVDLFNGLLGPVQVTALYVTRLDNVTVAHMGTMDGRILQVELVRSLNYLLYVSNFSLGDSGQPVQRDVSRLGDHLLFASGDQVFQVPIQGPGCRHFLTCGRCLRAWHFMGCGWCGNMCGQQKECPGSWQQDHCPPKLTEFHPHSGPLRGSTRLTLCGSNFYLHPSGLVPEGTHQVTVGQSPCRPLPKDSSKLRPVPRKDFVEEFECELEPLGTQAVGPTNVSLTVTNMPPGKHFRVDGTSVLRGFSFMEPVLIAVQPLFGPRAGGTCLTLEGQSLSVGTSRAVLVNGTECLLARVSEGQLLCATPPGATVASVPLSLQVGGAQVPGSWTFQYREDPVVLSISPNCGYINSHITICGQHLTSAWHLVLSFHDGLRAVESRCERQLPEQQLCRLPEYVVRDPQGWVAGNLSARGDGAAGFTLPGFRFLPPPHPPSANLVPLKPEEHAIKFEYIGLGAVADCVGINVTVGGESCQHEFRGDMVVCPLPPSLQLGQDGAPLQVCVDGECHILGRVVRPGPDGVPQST

| Molecule | cross-reactivity [1] [%] | binding result [2] | IC50 [3] [nM] |
| --- | --- | --- | --- |
| antigen affinity purified goat polyclonal anti-human MET extracellular domain antibody (catalog number AF276, R&D Systems) | < 5 | – | – |
| B1 | – | no binding | 1.2 |
